Assay results published in FireProtDB (doi:10.1111/j.1432-1033.1995.tb20520.x).
“And” between values parts separate entries of the source, which are not always exact repeats. Identical values can stand only once.

Conditions: Paenibacillus macerans, pH 6, Sodium cacodylate 2 mM, reversible: yes, whole UniProt chain shown; for unfolding free energy: 25 °C, GdnHCl; for heat capacity change of unfolding / unfolding enthalpy (van 't Hoff) / Tm / unfolding enthalpy (calorimetric): Thermal

B1: Beta-glucanase wild type, P23904 (protein)
chain: MKKKSCFTLVTTFAFSLIFSVSALAGSVFWEPLSYFNRSTWEKADGYSNGGVFNCTWRANNVNFTNDGKLKLGLTSSAYNKFDCAEYRSTNIYGYGLYEVSMKPAKNTGIVSSFFTYTGPAHGTQWDEIDIEFLGKDTTKVQFNYYTNGVGGHEKVISLGFDASKGFHTYAFDWQPGYIKWYVDGVLKHTATANIPSTPGKIMMNLWNGTGVDDWLGSYNGANPLYAEYDWVKYTSN
Q: With B1 as the protein, how does the unfolding free energy (CD) read?
A: 10.3 kcal/mol and 9.01 kcal/mol and 8.6 kcal/mol

Q: What about the unfolding free energy (DSC, CaCl2 1 mM) of the same protein?
A: 10.4 kcal/mol and 10.5 kcal/mol

Q: And the unfolding free energy (DSC)?
A: 10.8 kcal/mol and 9.89 kcal/mol and 8.41 kcal/mol

Q: What about the “heat capacity change of unfolding” value (CD, CaCl2 1 mM) of the same protein?
A: 2.2 kcal/mol/K and 1.79 kcal/mol/K

Q: And the “unfolding enthalpy (van 't Hoff)” value (CD, CaCl2 1 mM)?
A: 162 kcal/mol and 169 kcal/mol and 183 kcal/mol

Q: And the Tm (CD)?
A: 51.2 °C and 47.7 °C and 49.7 °C

Q: What about the “heat capacity change of unfolding” value (CD) of the same protein?
A: 2.01 kcal/mol/K and 1.6 kcal/mol/K and 1.7 kcal/mol/K

Q: And the “unfolding enthalpy (van 't Hoff)” value (CD)?
A: 154 kcal/mol and 145 kcal/mol and 135 kcal/mol

Q: And the “heat capacity change of unfolding” value (DSC, CaCl2 1 mM)?
A: 2.2 kcal/mol/K and 1.79 kcal/mol/K and 2.44 kcal/mol/K

Q: What about the “unfolding enthalpy (calorimetric)” value (DSC, CaCl2 1 mM) of the same protein?
A: 78.2 kcal/mol and 156 kcal/mol and 87 kcal/mol

Q: And the Tm (DSC)?
A: 51.2 °C and 49.3 °C and 46.6 °C

Q: And the “heat capacity change of unfolding” value (DSC)?
A: 2.01 kcal/mol/K and 1.6 kcal/mol/K and 1.7 kcal/mol/K

Q: What about the “unfolding enthalpy (calorimetric)” value (DSC) of the same protein?
A: 161 kcal/mol and 146 kcal/mol and 143 kcal/mol
